Columns and labels:
SYCP3 [1] = biological target: T1, SYCP3 (Mus musculus, UniProt P70281); test: competition; 50-fold excess against labeled WT Probe; higher affinity than WT; Beyotime GS008 Gel-Shift binding buffer (composition and pH not given), 15 ul, 1 h at room temperature, 4% polyacrylamide gel; settings: protein: recombinant; tags: C-terminal 6xHis; chain copies: 4; label: unlabeled; blunt
T1 sequence: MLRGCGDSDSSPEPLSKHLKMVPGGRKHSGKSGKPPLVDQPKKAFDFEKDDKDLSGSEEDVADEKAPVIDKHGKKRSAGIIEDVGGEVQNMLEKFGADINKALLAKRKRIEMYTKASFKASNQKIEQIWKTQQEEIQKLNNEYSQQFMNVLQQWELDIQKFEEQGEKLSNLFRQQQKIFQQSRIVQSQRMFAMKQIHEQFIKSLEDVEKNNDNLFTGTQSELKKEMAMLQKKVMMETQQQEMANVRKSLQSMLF

SYCP3 [2] = biological target: T1, SYCP3; test: EMSA; stronger than WT Probe; Beyotime GS008 Gel-Shift binding buffer (composition and pH not given), 15 ul, 1 h at room temperature, 4% polyacrylamide gel; settings: protein: recombinant; tags: C-terminal 6xHis; chain copies: 4; label: 3' biotin-dUTP added by TdT on both strands; blunt before 3' TdT labeling
SYCP3 [3] = biological target: T1, SYCP3; test: EMSA; 0.2 uM probe, 1 ug SYCP3 in 15 ul; Beyotime GS008 Gel-Shift binding buffer (composition and pH not given), 15 ul, 1 h at room temperature, 4% polyacrylamide gel; settings: protein: recombinant; tags: C-terminal 6xHis; chain copies: 4; label: 3' biotin-dUTP added by TdT on both strands; blunt before 3' TdT labeling
SYCP3 [4] = biological target: T1, SYCP3; test: competition; 50-fold excess against labeled WT Probe; efficient competition; Beyotime GS008 Gel-Shift binding buffer (composition and pH not given), 15 ul, 1 h at room temperature, 4% polyacrylamide gel; settings: protein: recombinant; tags: C-terminal 6xHis; chain copies: 4; label: unlabeled; blunt

B1: Mut competitor (dsDNA)
DNA 1: GTGACTTCAACAGCCAGGTCTTAATTTCAAATGCATTGAATAGATGTCTTGTCTCCCAGA
DNA 2: TCTGGGAGACAAGACATCTATTCAATGCATTTGAAATTAAGACCTGGCTGTTGAAGTCAC
- binding result (SYCP3 [1]): binds

B2: Mut probe (dsDNA)
DNA 1: B1 DNA 1
DNA 2: B1 DNA 2
- binding result (SYCP3 [2]): binds

B3: WT Probe (dsDNA)
DNA 1: ACAGTCCTGGTGATTGAACTCCGGCCCTGGGCATGCCAGGCGAGCACTCCACTCTTTGAG
DNA 2: CTCAAAGAGTGGAGTGCTCGCCTGGCATGCCCAGGGCCGGAGTTCAATCACCAGGACTGT
- binding result (SYCP3 [3]): binds

B4: WT competitor (dsDNA)
DNA 1: B3 DNA 1
DNA 2: B3 DNA 2
- binding result (SYCP3 [4]): binds

Reference: article PMC12146848, “Deciphering meiotic chromatin organization by SYCP3”
